Measured values taken from PMC9521928.

Target: CPXV14-His (His-tagged recombinant cowpox virus Brighton Red CPXV14) (cowpox virus (Brighton Red strain))
Assay: BLI; […] (10 μg/mL, 2 min), […]; PBS pH 7.4, 0.005% Tween-20; 25°C; steady-state fit, 1:1 binding model; […]

soluble recombinant murine FcγRIIB (mCD32B) ectodomain (from UniProt P08101 30-210) (receptor)
Kd: 3.6 nM
